What was measured:
[1] = molecular target: T1, recombinant (r)HA of pH1N1 A/California/04/2009 (Protein Sciences Corp.) (influenza A virus A/California/04/2009 …, UniProt P26140 18-529)
[2] = molecular target: T1, recombinant (r)HA of pH1N1 …; remark: listed apart in the source

B1: KPF1 human monoclonal antibody (hmAb) (antibody, V domains shown)
VH: EVQLLESGGGLVQPGGSLRISCAASGSTFGDFAMSWVRQSPGRGLEWVSVTSAGGDRTYYADSVKGRFTISRDNSKNTLYLQMNSLRGEDTAMYYCARLDSSGFHYGRPGRNWGQGTLVTVSS
VL: DIQMTHSPPSLSASVGDRITITCQASQDISYYLIWYQQKPGKAPKPLIYDASNLEAGVPSRFSASGSGTDFTLTISSLQPEDLATYYCQQYKSLPYTFGQGTKLEIK
B1 gave a koff [1] of 3.42e-05 s⁻¹, a kon [1] of 192000 M⁻¹ s⁻¹ and a Kd [2] of 0.178 nM.
